{
  "source": "the nanobody polyreactivity screen of Harvey et al. (2022)",
  "data": [
    {"test": "yeast display, Sf9 membrane polyspecificity reagent, FACS + sequencing; frameworks hold sequencing errors", "procedure,_shortened": "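Sorting gates, low and high (top ~1%), were placed on anti-HA fluorescence to track expression and on streptavidin fluorescence to track reagent binding. A clone's polyreactivity label is taken from the gate it came out of. The reagent was 10% biotinylated, detergent-solubilized Sf9 membrane, applied for 1 hour at 4 °C to galactose-induced yeast display cells.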", "values": [
      {"sequence": "QVQLVESGGGLVQAGGSLRLSCADSGRIFVRKAMGWYRQAPGKERELVAAISARGGRTNYADSVKGRFTISRDNAKNTVYLQMNSLKPEDTAVYYCAADGLRAAYLYDYWGQGTQVTVSS", "polyreactivity (PSR sort gate)": "high polyreactivity"},
      {"sequence": "QVQLVESGGGLVQAGGSLRLSCAASGSTFTNYAMGWYRPAPGKERELVARITSSGSRTYYADSVKGRFTISRDNAKNTVYLQMNSLKPEDTAVYYCNAETYYLRYGRGYRRFDYWGQGTQVTVSS", "polyreactivity (PSR sort gate)": "high polyreactivity"},
      {"sequence": "QVQLVESGGGLVQAGGSLRLSCAASGSIFRWYDMGWYRQAPGKERELVAVISKRGGSTYYADSVKGRFSISRDNAKNTVYLQMTSLKPEDTAVYSCAKRYERWQLARLDYWGQGTQVTVSS", "polyreactivity (PSR sort gate)": "high polyreactivity"},
      {"sequence": "QVQLVESGGGLVQAGGSLRLSCAASGSTFQINAMGWYRQAPGKERELVAAIDGGGDTYYADSVKGRFTISRDNAKYTVYLQMNSMKPEDTAVYYCAAERRIYYQDFNFWGQGTQVTVSS", "polyreactivity (PSR sort gate)": "low polyreactivity"},
      {"sequence": "QVQLVESGGGLVQAGGSLRLSCAASGSTLGYYAMGWYRQAPGKERELVAAISGRGTSTYYADSVKGRFTISRDNAKTTVYLQMNSLKPEDSAVFYCAAQLFRELYWGQGTQVNVSS", "polyreactivity (PSR sort gate)": "high polyreactivity"},
      {"sequence": "QDQLVESGGGIVQAGGSLRLSCAASGRTFTAYAMGWYRQAPGKERELVAAISSSGGSTYYADSEKGRFTISRDNAKNTVYLQMNSLKPDDTAVYYCAALGGYRYGYDYWGQGTQVTVSS", "polyreactivity (PSR sort gate)": "high polyreactivity"},
      {"sequence": "QDQLVESGGGLVQAGGSLRLSCAASGRTCGYYTMGWYRQAPGKERELVATISSDGTTNYADSVKGRFTISRDNAKNTVYLQMNSLKQEDTAGYYCNADFRLQYYYRIYDYWGQGTQVTVSS", "polyreactivity (PSR sort gate)": "low polyreactivity"},
      {"sequence": "QDPHVESGGGIVQAGGSISLRCSASGSTYAKKAMVRYRKAPGKEKELFADISASGGSTYYADSVKGRFTISRDIAKNSVYLQMYSLKPEETSVYYWAKSSYLTRGSRYDYWGQGTQVTLSS", "polyreactivity (PSR sort gate)": "low polyreactivity"},
      {"sequence": "QVQLVESGGGLVQAGGSLRLSCAASGFTFYPYAMGWYRQAPGTERELVAAIRGSGGSTHYADSVKGRFTISRDNAKNTVYLQMNSLKPEDTAVYYCAARIRGYRQYEYYYWGQGTQVTVSS", "polyreactivity (PSR sort gate)": "high polyreactivity"},
      {"sequence": "QVQLVESGGGLVQAGGSLRLSCAASGSTFYTNAMGWYRQAPGKERELVAAISYSGGGTYYADSVKGRFTISRDNAKNTVYLQMNSLKPEDTAVYYCAADTLQRAFVLYDYWGQGTQVTVSS", "polyreactivity (PSR sort gate)": "high polyreactivity"},
      {"sequence": "QVQLVESGGGLVQAGGSLRLSCAASGRIFQYYAMGWYRQAPGKEREFVAAISDSGSNTYYADSVKGRFTISCDKAKNTVYLQMNSLKPEDTAVSYCAALYATRALFYFWGQGTQVTVSS", "polyreactivity (PSR sort gate)": "low polyreactivity"},
      {"sequence": "QVQLVESGGGLVQAGGSLRLSCAASGRTFRGYAMGWYRQAPGKERELVAAITWRGGSTKYADSVKGRFTISRDNAKNTVYLKMNSLKPEDTAVYYCAAARHYLTFWGQGSQVTVSS", "polyreactivity (PSR sort gate)": "high polyreactivity"},
      {"sequence": "QVQLVESGGGLVQAGGSLRLSCAASGRTFVRYALGWYRQAPGKERELVAAISWNDNSTYYADSVKGRFTISRDNAKNTVYLQMNSLKPEDTAVYYCATRVLTQQPGYQAYIFPEFDYWGQGTQVTVSS", "polyreactivity (PSR sort gate)": "low polyreactivity"},
      {"sequence": "QVQLVESGGGLVQAGGSLRLSCAASARIFDTYAMGWYRQAPGKETELVDSISIDGSTYYADSVKGRFTISRDNAKNTVYLQMNSLKPEDTAVYYCNADGRYYTVRFEYWGQGTQVTVSS", "polyreactivity (PSR sort gate)": "low polyreactivity"},
      {"sequence": "QVQLVESRGGLVQAGGSLRLSCAASGRIFRYNAMGWYRQAPGKERELVAAITWSGVSTYYADSVKGRFTISRDNAKNTGYLQMNSLKPEHTAVYYCNARRWPAWSSDDYWGQGTQVTVSS", "polyreactivity (PSR sort gate)": "high polyreactivity"},
      {"sequence": "QVQLVESAGGLVQAGGSLRLSCAASVSTIAPNAMGWYRQAPGKERELVASIRRGGSTHYADSVKGSFTISRDNAKNTVYLQMNSLKPEDTAVYYCAKDVWRHYLNLYDYWGQGTQVTLSS", "polyreactivity (PSR sort gate)": "low polyreactivity"},
      {"sequence": "QVQLVESGAGLVQAGGSLRLSSAASGSIFEPNAMGWYRQAPGKERELVAAITSGGTTYADSVKGRFTISRDNAKNSVYFQMNSLKPEDSAVYYCAAYYIFVYYYPFDYWGQGTQVTVSS", "polyreactivity (PSR sort gate)": "low polyreactivity"},
      {"sequence": "QVQLVESGGGLVQAGGSLRLSCAASGFIFSFDNAMGWYRQAPGKERELVAAISSGTTTHYADSVKGRFTISRDNAKNTVYLQMNSLKREDTAVYYCAAGTATDVASIGATKDYDYWGQGTQGTVSS", "polyreactivity (PSR sort gate)": "low polyreactivity"},
      {"sequence": "QVQLVESGGGLVQAGGSLRLSCAASGSTFHRYVMGWYRQAPGKERELVAVINSTGGSTYYADSVKGRFTISRDNAKNTVYLQMNSLKPEDNAVYYCARVTRRGPGYTTLYSRYDYWGQGTQVTVSS", "polyreactivity (PSR sort gate)": "low polyreactivity"},
      {"sequence": "QVQLVESGGGLVQAGGSLRLSCAASGSTYYNAMGWYIQAPGKERELVAAIRFRSGSTYYADSVKGRFTISRDNAKNTVYLQMNSMKPVDTAVYYCAADNKRSWRYAYNYWGQGTQVTVSS", "polyreactivity (PSR sort gate)": "high polyreactivity"},
      {"sequence": "QVQLVESGVGLVQAGGSLRLSCAASVRIFLFYAMGGYRQAPVKERELVAAITSGGSTYYADSVKGRFTMSRDNAKNTVYLQMNSLKPEDTAVYYCANYYWGQGTQVTVSS", "polyreactivity (PSR sort gate)": "low polyreactivity"},
      {"sequence": "QVQLVESGGGLVQAGGSLRLSCDDSGSTFVINDMGWYRQAPGKERELVAAITWGSGSTSYADSVKGRCTISRDNAKNTVYGQMISLKPEDTEVYYCAADVYLGLFGYYAEYNDYWGQGTQVTVSS", "polyreactivity (PSR sort gate)": "low polyreactivity"},
      {"sequence": "QVQLVESGGGLVQAGGSLRLSCAASGSIRYYAMGWYRQAPGKEREFVAAISRRGSSTNYADSVKGRFTISRDNAKNTVYLQMNRLKPEDTAVYYCARGLDVISYGYDYWGQGTQVTVSS", "polyreactivity (PSR sort gate)": "high polyreactivity"},
      {"sequence": "QVQLVESGGGLVQAGGSLRLSCAASGSIFAWNAMGWYRQAPGKERELVAAIRWSSGRTNYADSVKGRFTISRDNAKNTVYLQMNSLKPEDTAVYYCNARVVNYFRPRTGAREYDYWGQGTQVTVSS", "polyreactivity (PSR sort gate)": "high polyreactivity"},
      {"sequence": "QVQLVESGGGLVQAGGSLRLSFDASGSIFSFYAMGGYSQAPGKERELVAAIRWSGGRTYYADSVKGRFTISRDPAKNTVYLQMNSLKPEDTAVYYCAADKYLDYDYWGQGTQVTVSS", "polyreactivity (PSR sort gate)": "high polyreactivity"},
      {"sequence": "QVQLVESGGGLVQAGGSLRLSCAASGRTFPSYAMGWYRQAPGKERELVAAITRGGSTNYADSVKGRFTISRDNAKNTVYLQMNSLKPEDTAVYYCAAARWRWQLARDDYWGQGTQVTVSS", "polyreactivity (PSR sort gate)": "high polyreactivity"},
      {"sequence": "QVQLVESGGGLVQAGGTLRLSCAASGLISYFYGMGWYRQAPGKERELVAGIDTGSSTNYADSVKGRFTISRDNAKNTVYLQMNSLKPEDTAVYYCAADSVSKYGSDYWGQGTQVTVSS", "polyreactivity (PSR sort gate)": "low polyreactivity"},
      {"sequence": "QVQLVESGGGLVQAGGSLRLSCAASGIIFSIYVMGWYRQAPGKERELVAAISSNGGSTYYADSVKGRFTISRDNAKNTVYLQMNSLKPEDTAVYYCAAVSRSHYYYWGQGTQVTVSS", "polyreactivity (PSR sort gate)": "high polyreactivity"},
      {"sequence": "QVQLVESGGGLVQAGGSLRLSCAASGITFYEYAMGWYRQAHGKERELVAAISQSGGSTYYADSVKGRFTISRDNAKNTVYLQMNSLKPEDTAVYYCAADIKWSIRRAYDYWGQGTQVTVSS", "polyreactivity (PSR sort gate)": "high polyreactivity"},
      {"sequence": "QVQLVESGGGLVQAGGSLRLSCAASGNILRYAMGWYRQAPGKERELVARISWRGGSTYYADSVKGRFTISRDNAKNTVYLQMNSLKPEDTAVYYCNKAYLGGGWQKTYDYWGQGTQVTVSS", "polyreactivity (PSR sort gate)": "high polyreactivity"},
      {"sequence": "QVQHVESGGGLVQAGGSLRLSCAASGRTFRNYAMGWYRQAPGKERELVAAISSGGSTNYADSVKGRFTISRDNAKNTVYLQMNSLKPEDTAVYYCAARQRAYYGPGFDYWGQGTQVTVSS", "polyreactivity (PSR sort gate)": "low polyreactivity"},
      {"sequence": "QVQLVESRGGLVQAGGSLRLSCAASGSIFYVYAMGWYRQAPAKERELVAAITSSGTTNYADSVKGRFTIPRDNAKNTVYLQMNSLKPEDTAVYYCAADPDSGQVPFDYWGQGTQVTVSS", "polyreactivity (PSR sort gate)": "low polyreactivity"}
    ]}
  ]
}
